Experiments:
[1] = molecular target: T1, α-thrombin (Homo sapiens, UniProt P00734); experiment: Effect of hirugen on thrombin inhibition in the absence of glycosaminoglycan; assay type: biochemical
T1 construct: Human α-thrombin, HCII, and ATIII were purified in our laboratory from plasma; from tissue; host or cells: human plasma (purified in the authors' laboratory)
Description: (§1) Residual thrombin activity was measured with 150 μM GlyProArg-NA and 1 mg/mL pB in the absence of glycosaminoglycan, 2 mg/mL pB in the presence of heparin and 4 mg/mL in the presence of dermatan sulfate. Residual factor Xa activity was measured with 500 μM Spectrozyme FXa and 2mg/mL pB in the presence or absence of glycosaminoglycan. Residual chymotrypsin activity was measured with 150 μM AlaAlaProPhe-NA and residual trypsin activity was measured with 150 μM GlyProArg-NA.
Assays were performed at least in triplicate on two or more recombinant protein preparations.

[2] = Heparin-Sepharose affinity chromatography; assay type: binding; settings: NaCl gradient, 20 mM Hepes pH 7.4
Description: 100 μL of each fraction was aliquoted onto a 96-well microtiter plate and ELISA was performed. The peak elution ionic strength was determined by plotting 405 nm color development and NaCl concentration against the fraction number. All samples were run at least in triplicate using two or more protein preparations. Recombinant ATIII samples were run similarly to the HCII samples, except the elution gradient was run from 50 mM to 2 M NaCl.

[3] = molecular target: T2, plasma purified α-thrombin (Homo sapiens, UniProt P00734); experiment: Thrombin inhibition in the presence of glycosaminoglycans (heparin or dermatan sulfate); assay type: biochemical; settings: heparin at optimal concentration
T2 construct: Human α-thrombin, HCII, and ATIII were purified in our laboratory from plasma; from tissue; host or cells: human plasma (purified in the authors' laboratory)
Description: Protease inhibition rates were determined as described previously (Rogers, S. J., Pratt, C. W., Whinna, H. C., and Church, F. C. (1992) J. Biol. Chem. 267(6), 3613-3617; Whinna, H. C., Choi, H. U., Rosenberg, L. C., and Church, F. C. (1993) J. Biol. Chem. 268, 3920-3924; Ciaccia, A. V., Cunningham, E. L., and Church, F. C. (1995) Protein Express. Purific. 6, 806-812; Ciaccia, A. V., Willemze, A. J., and Church, F. C. (1997) J. Biol. Chem. 272(2), 888-893). All assays were performed at room temperature in 96-well microtiter plates previously coated with 2 mg/mL BSA.
In the presence of glycosaminoglycans, 5 nM rHCII (wt, CHis6, CHis5 Pro, L444R, or L444R-CHis6) was incubated with 0.5 nM thrombin and 0-1 mg/mL heparin or 0-4 mg/mL dermatan sulfate or 10 nM rATIII (wt or CHis6) was incubated with 1 nM thrombin or factor Xa and 0-1 mg/mL heparin in the presence of 2 mg/mL BSA in HNPN, pH 7.4.
as §1, with “GlyProArg-NA. Substrate cleavage was measured by color development at […] on a Vmax Kinetic Microplate Reader (Molecular Devices).” for “GlyProArg-NA.”
Assays were performed at least in triplicate on two or more recombinant protein preparations. All inhibition studies were measured under pseudo-first order conditions where inhibitor [I] is at least ten-fold higher than enzyme (protease) [E], and second-order rate constants were calculated as described previously (Ciaccia, A. V., Cunningham, E. L., and Church, F. C. (1995) Protein Express. Purific. 6, 806-812; Ciaccia, A. V., Willemze, A. J., and Church, F. C. (1997) J. Biol. Chem. 272(2), 888-893).

[4] = molecular target: T2, plasma purified α-thrombin; settings: value printed with literature reference; cited from earlier work
[5] = tested on: thrombin; settings: cited from earlier work

B1: rHCII-L444R: Recombinant HCII with mutation at the reactive site residue P1 (L444R) (protein, UniProt P05546 20-499, looked up, variant L444R)
Heparin cofactor 2: GSKGPLDQLEKGGETAQSADPQWEQLNNKNLSMPLLPADFHKENTVTNDWIPEGEEDDDYLDLEKIFSEDDDYIDIVDSLSVSPTDSDVSAGNILQLFHGKSRIQRLNILNAKFAFNLYRVLKDQVNTFDNIFIAPVGISTAMGMISLGLKGETHEQVHSILHFKDFVNASSKYEITTIHNLFRKLTHRLFRRNFGYTLRSVNDLYIQKQFPILLDFKTKVREYYFAEAQIADFSDPAFISKTNNHIMKLTKGLIKDALENIDPATQMMILNCIYFKGSWVNKFPVEMTHNHNFRLNEREVVKVSMMQTKGNFLAANDQELDCDILQLEYVGGISMLIVVPHKMSGMKTLEAQLTPRVVERWQKSMTNRTREVLLPKFKLEKNYNLVESLKLMGIRMLFDKNGNMAGISDQRIAIDLFKHQGTITVNEEGTQATTVTTVGFMPRSTQVRFTVDRPFLFLIYEHRTSCLLFMGRVANPSRS
**Q.** Which “effect of hirugen on thrombin inhibition, in words” value ([1]; hirugen 20 μM, absence of glycosaminoglycan) does the source give for B1 here?
**A.** Its value is “less of an effect”.

**Q.** What about the “rate constant of inhibition (k2) in the absence of peptide” value ([1]; no hirugen, no control peptide, FIG. 5) of the same molecule?
**A.** The value was 31200 M⁻¹ s⁻¹.

**Q.** What about the “Heparin-Sepharose [NaCl], peak elution concentration” value [2] of the same molecule?
**A.** The value was 350 mM.

**Q.** And the “maximal rate of thrombin inhibition in the presence of heparin” value [3]?
**A.** Its value is 1.93±0.38×10^8 M^-1 min^-1.

**Q.** What about the “maximal rate of thrombin inhibition in the presence of dermatan sulfate” value [4] of the same molecule?
**A.** Its value is 2.84±0.24×10^6 M^-1 min^-1.

**Q.** What about the “increase of the rate of thrombin inhibition compared to wt-rHCII” value ([5]; absence of glycosaminoglycan, earlier publications) of the same molecule?
**A.** The value was ~2 orders of magnitude.

**Q.** What about the “rate of thrombin inhibition in the absence of glycosaminoglycan” value ([5]; value printed with literature reference) of the same molecule?
**A.** Its value is 1.3±0.30×10^6 M^-1 min^-1.
